Measurements as given in patent publication US8501181B2, “Compositions and methods for treating osteolytic disorders comprising MMP-14 binding proteins” (Dyax Corp., priority 2007, dated 2013).
One block for each molecule: values may come before it.

How the values were obtained:
Raw 264.7 cells = assay: Osteoclastogenesis (TRAP staining) and bone resorption (pits) on osteologic slides, RANK ligand-stimulated; format: cell-based, Mouse; conditions: Raw 264.7 cells + 100 ng/ml murine soluble RANK ligand, 6 days; GM6001 5, 10, 25 μM; 539A-M0240-B03 10, 50 μg/ml; 539A-M0237-D02 10, 100 μg/ml; dose-dependent; data not shown
Method: Cells. […] Cells between passage 3-7 were used in this study.
Materials. […] Tartrate-resistant acid phosphatase (TRAP) staining kit was obtained from KAMIYA BIOMEDICA COMPANY™, Seattle Wash. (Catalog #KT-008). GM6001 was obtained from MILLIPORE™.
Methods. Approximately 2000 Raw 264.7 cells per slide were seeded onto osteologic multitest slides with complete growth medium. […] The slides were then incubated at 37° C. for 6 days, replacing fresh media on day 3 as described above. At the end of incubation time, one side of the slide was stained for TRAP and the other side of the slide was bleached (10% bleach), washed several times with water, and air dried. The slides were then viewed under the microscope for either multinucleated TRAP positive cells or resorbed areas (pits). Cells incubated with media only and recombinant osteoprotegerin (rH OPG) (100 ng/ml) served as negative and positive controls, respectively.

MMP-9 [1] = target: T1, MMP-9 (Homo sapiens, UniProt P14780); assay: MMP-9 inhibition, selectivity (statement, no method given); format: biochemical
Target sequence in this assay (P14780 94-707, species assumed): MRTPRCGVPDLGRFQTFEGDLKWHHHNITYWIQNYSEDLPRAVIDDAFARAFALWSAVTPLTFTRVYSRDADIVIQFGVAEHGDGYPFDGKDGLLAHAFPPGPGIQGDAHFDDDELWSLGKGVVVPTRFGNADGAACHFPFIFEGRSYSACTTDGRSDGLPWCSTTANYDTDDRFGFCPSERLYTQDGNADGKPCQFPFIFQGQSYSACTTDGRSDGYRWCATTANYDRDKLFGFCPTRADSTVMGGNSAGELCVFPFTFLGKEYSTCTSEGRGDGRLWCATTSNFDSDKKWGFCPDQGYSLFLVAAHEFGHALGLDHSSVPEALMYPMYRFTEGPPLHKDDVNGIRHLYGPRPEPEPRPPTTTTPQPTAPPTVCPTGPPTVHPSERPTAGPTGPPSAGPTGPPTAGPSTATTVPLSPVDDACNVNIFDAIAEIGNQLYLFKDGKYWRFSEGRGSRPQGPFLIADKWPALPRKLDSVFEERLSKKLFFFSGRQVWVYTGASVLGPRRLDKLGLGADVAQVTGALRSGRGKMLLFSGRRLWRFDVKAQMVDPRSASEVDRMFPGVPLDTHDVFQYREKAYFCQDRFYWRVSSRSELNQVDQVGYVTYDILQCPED

MMP-9 [2] = target: T1, MMP-9; assay: Inhibition of human MMP-9 activity (statement, no method given); format: biochemical
Target sequence in this assay (P14780 94-707): as the sequence (P14780 94-707, species assumed) above

mouse MMP-9 = mouse MMP-9 (Mus musculus, UniProt P41245); assay: Inhibition of mouse MMP-9 activity (statement, no method given); format: biochemical
[3] = system: PC-3 prostate cancer cells; assay: PC-3 prostate cancer model, intra-tibial inoculation, osteolytic lesions; format: in vivo; conditions: mice, intra-tibial PC-3 cells; 10 mg/kg Q2D for 14 days, started 3 days after inoculation; vs PBS control; X-ray and bone histomorphometric analysis
Method: PC-3 prostate cancer cells were inoculated intra-tibially into mice. Treatment was initiated 3 days after intra-tibial inoculation of the cells. DX-2400 (10 mg/kg) and a PBS control were administered Q2D for 14 days.

MMP-14 = MMP-14 (Homo sapiens, UniProt P50281); assay: MMP-14 inhibition (statement, no method given); format: biochemical

Chain of mouse MMP-9 (P41245 108-730): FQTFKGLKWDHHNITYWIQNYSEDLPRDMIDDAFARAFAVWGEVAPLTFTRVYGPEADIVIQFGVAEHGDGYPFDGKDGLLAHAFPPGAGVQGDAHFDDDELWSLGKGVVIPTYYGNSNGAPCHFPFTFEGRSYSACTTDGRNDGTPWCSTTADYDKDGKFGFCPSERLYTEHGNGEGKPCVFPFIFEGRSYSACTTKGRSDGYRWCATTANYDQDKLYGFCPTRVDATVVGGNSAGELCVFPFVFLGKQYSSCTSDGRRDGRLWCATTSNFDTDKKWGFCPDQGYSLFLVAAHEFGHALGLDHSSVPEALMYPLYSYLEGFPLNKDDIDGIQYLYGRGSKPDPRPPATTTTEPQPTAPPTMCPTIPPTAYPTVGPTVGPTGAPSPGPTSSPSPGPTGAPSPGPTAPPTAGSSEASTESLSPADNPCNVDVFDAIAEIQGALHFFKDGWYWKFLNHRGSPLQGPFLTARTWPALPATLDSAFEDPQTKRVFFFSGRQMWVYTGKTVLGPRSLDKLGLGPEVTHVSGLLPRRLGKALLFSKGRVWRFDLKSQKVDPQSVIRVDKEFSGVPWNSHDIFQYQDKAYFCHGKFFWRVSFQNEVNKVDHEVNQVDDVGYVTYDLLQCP

Molecule: CNC(=O)[C@H](Cc1c[nH]c2ccccc12)NC(=O)[C@@H](CC(=O)NO)CC(C)C [GM6001, reference compound]
effect on bone resorption (number of resorbed areas, pits) (Raw 264.7 cells): inhibitory effects | effect on osteoclastogenesis (TRAP-positive staining) (Raw 264.7 cells): inhibitory effects

selectivity of MMP-9 inhibition (MMP-9 [1]): selective inhibitor of MMP-9 | effect on activity of human MMP-9 (MMP-9 [2]): can decrease or inhibit the activity | effect on activity of mouse MMP-9 (mouse MMP-9): can decrease or inhibit the activity
B1: 539A-M0240-B03: exemplary MMP-9 antibody; LC CDRs SEQ ID NO: 14-16, HC CDRs SEQ ID NO: 17-19 (antibody, V domains shown)
VL: QYELTQPRSVSGSPGQSVTISCTGTSSDVGGYNYVSWYQQHPGKAPKLMIYDVSKRPSGVPDRFSGSKSGNTASLTISGLQAEDEADYYCCSYAGSYTLVFGGGTKLTVL
VH: EVQLLESGGGLVQPGGSLRLSCAASGFTFSTYQMVWVRQAPGKGLEWVSVIYPSGGPTVYADSVKGRFTISRDNSKNTLYLQMNSLRAEDTAVYYCARGEDYYDSSGPGAFDIWGQGTMVTVSS
effect on bone resorption (number of resorbed areas, pits) (Raw 264.7 cells): inhibitory effects | effect on osteoclastogenesis (TRAP-positive staining) (Raw 264.7 cells): inhibitory effects

selectivity of MMP-14 inhibition (MMP-14): selective inhibitor of MMP-14
B2: DX-2400: exemplary MMP-14 antibody; VH SEQ ID NO: 22, VL SEQ ID NO: 23; shares HC and LC CDRs with M0038-F01 (antibody, V domains shown)
VH: EVQLLESGGGLVQPGGSLRLSCAASGFTFSLYSMNWVRQAPGKGLEWVSSIYSSGGSTLYADSVKGRFTISRDNSKNTLYLQMNSLRAEDTAVYYCARGRAFDIWGQGTMVTVSS
VL: DIQMTQSPSSLSASVGDRVTITCRASQSVGTYLNWYQQKPGKAPKLLIYATSNLRSGVPSRFSGSGSGTDFTLTISSLQPEDFATYYCQQSYSIPRFTFGPGTKVDIK
notes: exemplary MMP-14 antibody; shares HC and LC CDRs with M0038-F01
reduction of the area of the osteolytic lesions [3]: about 3 fold
